Test results taken from article PMC5928105.

Target: 20S proteasome core (mouse (endogenous in mouse retina)) (UniProt Q9Z2U0)
Assay: SEC; retinal lysates of WT or PA28α overexpressing mice on Superose-6 (Fig. 1) or Superose-6 Increase; 50 mM Tris-HCl pH 7.4, 40 mM NaCl, 5 mM MgCl2, 10% glycerol, 1 mM DTT, 1 mM ATP; 0.5 ml fractions western-blotted for β1 (20S), PSMD11 (19S) and PA28α (11S)

UniProt Q9Z2U0, sequence (Q9Z2U0 whole entry, looked up): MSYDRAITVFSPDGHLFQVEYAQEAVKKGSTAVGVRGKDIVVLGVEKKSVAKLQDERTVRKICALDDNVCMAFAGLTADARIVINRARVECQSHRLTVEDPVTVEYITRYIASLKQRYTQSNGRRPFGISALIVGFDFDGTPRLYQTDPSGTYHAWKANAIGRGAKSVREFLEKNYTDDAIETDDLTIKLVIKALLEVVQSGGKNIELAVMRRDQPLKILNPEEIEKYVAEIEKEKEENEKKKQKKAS

percent of PA28α co-eluting with 20S [%] | percent of 20S cores co-eluting with 19S caps [%] | Substance
2 | – | 11S caps formed upon PA28α overexpression (homomeric, PA28α subunits alone) (from UniProt P97371 1-249) (complex)
– | 45 | 19S proteasome cap (from UniProt Q8BG32 1-422; Q8BJY1 1-504; Q99JI4 1-389; Q3TXS7 1-953) (complex)
